From patent publication US20260209301A1, “Galanin-2 Receptor Agonists” (LIFEARC, priority 2022, published 2026)
One block for each compound: values may come before it. Non-standard residues stand in square brackets, D forms with d. Residues, ends and D or L forms follow the SMILES beside them. No end group written: not given here. *: point of attachment. Fmoc = O=C(OCC1c2ccccc2-c2ccccc21)*; Cha = N[C@@H](CC1CCCCC1)C(=O)O; AMC = Cc1cc(=O)oc2cc(N*)ccc12

Columns and labels:
GalR1 [1] = target: T1, GalR1 (Homo sapiens, UniProt P47211); test: cAMP HTRF assay, CHO GalR1 cells; type: cell-based; parameters: expressed in transfected cells; host or cells: CHO (Flp-In, pcDNA5/FRT); conditions: for GalR1 activity (cAMP assay), linker variants: Table 7, highest concentration tested 10 μM; for Emax: read-out: GalR1 cAMP IA (%)
T1 sequence (P47211 1-349): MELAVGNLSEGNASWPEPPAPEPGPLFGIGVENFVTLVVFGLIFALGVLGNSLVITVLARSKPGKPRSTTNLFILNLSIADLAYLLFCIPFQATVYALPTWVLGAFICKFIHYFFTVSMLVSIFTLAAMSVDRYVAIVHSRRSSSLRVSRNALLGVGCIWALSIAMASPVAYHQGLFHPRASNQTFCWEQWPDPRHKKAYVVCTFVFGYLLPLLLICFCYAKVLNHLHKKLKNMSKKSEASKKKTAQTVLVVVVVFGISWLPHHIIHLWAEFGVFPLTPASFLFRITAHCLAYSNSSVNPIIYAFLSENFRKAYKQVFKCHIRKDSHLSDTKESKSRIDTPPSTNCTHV
Procedure: The CAMP dynamic 2 kit (Cisbio International) was used as a competitive immunoassay to measure Homogenous Time-Resolved Fluorescence (HTRF). […] Addition of detection reagent involved adding 5 μl d2 conjugated CAMP followed by 5 μl anti-CAMP cryptate conjugate. The two reagents were not pre-mixed; these were both prepared in cell lysis buffer and incubated at room temperature in the dark for one hour.

GALR2 [2] = target: T2, GALR2 (Homo sapiens, UniProt O43603); test: Calcium assay, CHO GalR2 cells (FLIPR); conditions: for GalR2 activity (calcium assay), linker variants: Table 7; for GalR2 activity (calcium assay), linker variants / GalR2 Calcium, mean pEC50 / GalR2 activity (calcium assay), warhead length: mean +/− standard deviation; for GalR2 activity (calcium assay), linker variants / GalR2 activity (calcium assay), warhead length: highest concentration tested 10 μM; for GalR2 Calcium, mean pEC50: Table 2, n ≥ 3; for GalR2 activity (calcium assay), warhead length: Table 6
T2 sequence (O43603 1-387): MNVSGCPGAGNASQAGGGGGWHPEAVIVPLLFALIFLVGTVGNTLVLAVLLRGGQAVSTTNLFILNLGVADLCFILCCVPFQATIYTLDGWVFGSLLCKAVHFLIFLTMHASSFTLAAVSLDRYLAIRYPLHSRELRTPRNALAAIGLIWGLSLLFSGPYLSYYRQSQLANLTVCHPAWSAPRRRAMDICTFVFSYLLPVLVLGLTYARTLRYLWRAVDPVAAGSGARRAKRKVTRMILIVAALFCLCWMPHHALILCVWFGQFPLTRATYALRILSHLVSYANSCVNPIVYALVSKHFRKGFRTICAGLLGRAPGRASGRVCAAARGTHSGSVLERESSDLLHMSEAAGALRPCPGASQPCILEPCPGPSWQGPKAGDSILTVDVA
Procedure: CHO GalR2 cells were plated at 10,000 cells per well in black clear bottom plates (corning, USA) and incubated overnight at 37° C. with 5% CO2. […] Ligands were prepared at a 5× concentration and added to cells using the FLIPR (Molecular Devices, USA). Baseline was typically 20 seconds before ligand addition. […] For analysis, fluorescence was normalised to pre-addition baseline and peak fluorescence used for all quantification.
In brief, a panel of functional cell-based microtiter-plate assays were developed using recombinant GalR1 and GalR2 receptors stably expressed in CHO cells. […] Nominally this equated to 10 serial (~3fold) dilutions with highest concentrations of 10-1 μM as appropriate.
In addition to generating both potency and efficacy estimates, the latter being expressed relative to native galanin, both G-protein and non-G-Protein signalling pathways were measured.

GALR2 [3] = target: T2, GALR2; test: β-arrestin recruitment, PathHunter CHO-K1 GALR2 cells; type: cell-based; conditions: for GalR2 Beta Arrestin, mean pEC50: Table 2, mean +/− standard deviation, n ≥ 3
Procedure: (§1) Ligands were prepared at half log dilutions using cell plating reagent 2. 5 μl of each ligand was added to cells and plates incubated at 37° C. for 90 minutes. DiscoverX PathHunter detection kit (DiscoverX, USA) was added to cells as described my manufacturer's guidelines and plates incubated for 60 minutes at room temperature in the dark. Chemiluminescent signal was measured using the PHERAstar FS (BMG, Germany).

GalR1 [4] = target: T1, GalR1; test: β-arrestin recruitment, PathHunter CHO-K1 GALR1 cells; type: cell-based; conditions: for Emax: CHO-K1, 1.5 h, read-out: GalR1 Beta Arrestin IA (%)
Procedure: as §1

mouse GalR2 = target: T3, mouse GalR2 (Mus musculus, UniProt O88854); test: Calcium assay at orthologue receptor; type: cell-based
T3 sequence (O88854 1-371): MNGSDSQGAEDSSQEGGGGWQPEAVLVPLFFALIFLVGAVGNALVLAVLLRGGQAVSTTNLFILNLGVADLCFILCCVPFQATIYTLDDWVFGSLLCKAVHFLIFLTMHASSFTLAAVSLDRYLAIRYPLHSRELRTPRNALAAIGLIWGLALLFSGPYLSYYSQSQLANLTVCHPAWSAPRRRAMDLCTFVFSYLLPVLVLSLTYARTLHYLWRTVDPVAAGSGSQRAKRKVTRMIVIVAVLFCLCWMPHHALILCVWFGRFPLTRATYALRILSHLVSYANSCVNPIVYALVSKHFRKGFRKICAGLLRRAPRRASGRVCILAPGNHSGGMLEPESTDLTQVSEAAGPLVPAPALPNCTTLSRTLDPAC
Excerpt: (§2) These species were chosen as they represent potential downstream in vivo models to be used. Within native galanin amino acid residues 1-15 are conserved across species, we would therefore expect the Gal FC fusions comprising amino acids 2 to 13 to retain GalR2 activity in these species. Calcium imaging was used to define receptor activity.

cynomolgus GalR2 = test: Calcium assay at orthologue receptor; type: cell-based, Macaca fascicularis; conditions: Table 8; Calcium assays; mean +/− standard deviation
Excerpt: as §2

[5] = Table 3, mean +/− standard deviation, n ≥ 3, highest concentration 1 μM (galnon 100 μM)
[6] = maximum response at highest concentration tested (1 μM, except galnon at 100 μM), relative to galanin

Compound: Gal2-13FC GGS2: Gal2-13 FC fusion with GGSGGS linker; SEQ ID NO: 34
- GalR1 activity (cAMP assay), linker variants (GalR1 [1]; mean +/− standard deviation): 5.5 +/− 0.2
- GalR2 activity (calcium assay), linker variants (GALR2 [2]): 6.4 +/− 0.0

Compound: Gal2-13FC (ALA-12): Gal2-13FC with alanine at position 12; SEQ ID NO: 61
- activation of GalR2 in vitro (in words) (GALR2 [3]; positions 12 and 13 study, FIG. 2 / Table 4): failed to activate GalR2

Compound: Gal2-24FC: galanin 2-24, AEAAAKEAAAKA linker, human IgG1 FC; SEQ ID NO: 27
- GalR2 Beta Arrestin, mean pEC50 (GALR2 [3]): 7.6 +/− 0.0
- GalR2 Calcium, mean pEC50 (GALR2 [2]): 6.9 +/− 0.3
- GalR2 activity (calcium assay), warhead length (GALR2 [2]): 6.9 +/− 0.3

Compound: Cc1cc(=O)oc2cc(NC(=O)[C@H](CCCCN)NC(=O)[C@H](CC3CCCCC3)NC(=O)OCC3c4ccccc4-c4ccccc43)ccc12 [Galnon, reference compound] (Fmoc-[Cha]-Lys-{AMC})
- EC50 (GalR1 [1]): > 1 µM
- Emax (GalR1 [1]): 2.9%
- EC50 (GalR1 [4]): > 1 µM
- Emax (GalR1 [4]): 40.1%
- EC50 (GALR2 [3]): 158 µM
- EC50 (GALR2 [2]): 20 µM

Compound: CC(C)C[C@H](NC(=O)CNC(=O)[C@H](CC(N)=O)NC(=O)[C@H](CCCCN)NC(=O)[C@H](CC(=O)O)NC(=O)[C@H](CO)NC(=O)[C@H](Cc1ccccc1)NC(=O)[C@H](CO)NC(=O)[C@H](CCCNC(=N)N)NC(=O)[C@H](Cc1c[nH]cn1)NC(=O)[C@H](CC(N)=O)NC(=O)CNC(=O)[C@@H](NC(=O)[C@H](C)NC(=O)[C@H](Cc1c[nH]cn1)NC(=O)[C@@H]1CCCN1C(=O)CNC(=O)[C@H](CC(C)C)NC(=O)[C@H](CC(C)C)NC(=O)[C@H](Cc1ccc(O)cc1)NC(=O)CNC(=O)[C@H](C)NC(=O)[C@H](CO)NC(=O)[C@H](CC(N)=O)NC(=O)[C@H](CC(C)C)NC(=O)[C@@H](NC(=O)[C@H](Cc1c[nH]c2ccccc12)NC(=O)CN)[C@@H](C)O)C(C)C)C(=O)N[C@H](C(=O)N[C@@H](CO)C(=O)O)[C@@H](C)O [Galanin 1-30 (human), reference compound]
- EC50 (mouse GalR2): 0.001 µM
- Cynomolgus GalR2 activity (cynomolgus GalR2): 9.6 +/− 0.2

Compound: Gal2-13FC PA4: Gal2-13 FC fusion with PAPAPAPA linker; SEQ ID NO: 37
- GalR1 activity (cAMP assay), linker variants (GalR1 [1]; mean +/− standard deviation): 6.1 +/− 0.0
- GalR2 activity (calcium assay), linker variants (GALR2 [2]): 6.8 +/− 0.1

Compound: Gal2-18FC: galanin 2-18, AEAAAKEAAAKA linker, human IgG1 FC; SEQ ID NO: 26
- GalR2 Beta Arrestin, mean pEC50 (GALR2 [3]): 7.3 +/− 0.1
- GalR2 Calcium, mean pEC50 (GALR2 [2]): 6.7 +/− 0.1
- GalR2 activity (calcium assay), warhead length (GALR2 [2]): 6.7 +/− 0.1

Compound: CC[C@H](C)[C@H](NC(=O)[C@H](C)NC(=O)[C@H](Cc1c[nH]cn1)NC(=O)[C@@H]1CCCN1C(=O)CNC(=O)[C@H](CC(C)C)NC(=O)[C@H](CC(C)C)NC(=O)[C@H](Cc1ccc(O)cc1)NC(=O)CNC(=O)[C@H](C)NC(=O)[C@H](CO)NC(=O)[C@H](CC(N)=O)NC(=O)[C@H](CC(C)C)NC(=O)[C@@H](NC(=O)[C@@H](N)Cc1c[nH]c2ccccc12)[C@@H](C)O)C(=O)N[C@@H](CC(=O)O)C(=O)N[C@@H](CC(N)=O)C(=O)N[C@@H](Cc1c[nH]cn1)C(=O)N[C@@H](CCCNC(=N)N)C(=O)N[C@@H](CO)C(=O)N[C@@H](Cc1ccccc1)C(=O)N[C@@H](Cc1c[nH]cn1)C(=O)N[C@@H](CC(=O)O)C(=O)N[C@@H](CCCCN)C(=O)N[C@@H](Cc1ccc(O)cc1)C(=O)NCC(=O)N[C@@H](CC(C)C)C(=O)N[C@@H](C)C(N)=O [Galanin 2-29 (rat), reference compound]
- Emax (GalR1 [1]): 90.8%
- Emax (GalR1 [4]): 67.2%

Compound: RGRGNWTLNSAGYLLGPVLPPPALALA-NH2 (C-terminus assumed) [M1145, reference compound]
- Emax (GalR1 [1]): 86.7%
- Emax (GalR1 [4]): 24.5%

Compound: Gal2-13FC GGS: Gal2-13 FC fusion with GGS linker; SEQ ID NO: 33
- GalR1 activity (cAMP assay), linker variants (GalR1 [1]; mean +/− standard deviation): 5.3 +/− 0.1
- GalR2 activity (calcium assay), linker variants (GALR2 [2]): 6.4 +/− 0.1

Compound: GWTLNSAGYLLGPQPPGFSPFR-NH2 (C-terminus assumed) [M617, reference compound]
- Emax (GalR1 [1]): 90.1%
- Emax (GalR1 [4]): 99%

Compound: Gal2-13FC NL: Gal2-13 FC fusion with no linker; SEQ ID NO: 36
- GalR1 activity (cAMP assay), linker variants (GalR1 [1]; mean +/− standard deviation): 5.9 +/− 0.2
- GalR2 activity (calcium assay), linker variants (GALR2 [2]): 7.3 +/− 0.1

- GalR1 cAMP pEC50 (GalR1 [1]; [5]): 8.4 +/− 0.2
- GalR1 cAMP IA (%) (GalR1 [1]; [6]): 93.4 +/− 11.6%
- GalR1 Beta Arrestin pEC50 (GalR1 [4]; [5]): 5.72 +/− 0.40
- GalR1 Beta Arrestin IA (%) (GalR1 [4]; [6]): 88.1 +/− 7.1%
- GalR2 Beta Arrestin, mean pEC50 (GALR2 [3]): 5.7 +/− 0.4
- GalR2 Calcium, mean pEC50 (GALR2 [2]): 6.4 +/− 0.3
Compound: Gal1-30FC: galanin 1-30 fused to human IgG1 FC, mature chimeric protein SEQ ID NO: 23
